For orientation: EC50 (read off the curve) means the concentration needed to bring the measured effect to its halfway point. A word on the Kd: it is the equilibrium constant for the complex coming apart. Higher therefore signals weaker binding. As usually defined, the koff is a measure of how fast the partners let go of each other. High values mean fast dissociation, low ones slow dissociation. What is called kon is the second-order rate constant of association. A low value points to slow association.

Assay [1] deals with IL-18R on HEK-Blue IL18R reporter cells (InvivoGen, #hkb-hmil18). Description: cell-based or functional assay.
Assay [2] deals with anti-IL18 monoclonal antibody (MBL, cat #D043-3, Clone 25-2G). In words: sandwich ELISA, capture clone 25-2G, detection biotinylated clone 159-12B; without IL-18BP; the signal depends on both antibodies. The procedure: (§1) Immune-related PD effects were determined by analyzing cytokine levels in plasma. The following plasma cytokines were measured: IFNγ, CXCL9, CXCL10, GM-CSF, IL-1a, FasL, and IL-18BP. The activation status of leukocytes was determined by monitoring surface markers: ICOS, PD-1, CD25, CD69, and Fas. Bioanalysis was conducted by detecting the total amount of IL-18 variants (free and IL-18BP-complexed, see FIG. 7). Corning high-binding half-area plates (Fisher Scientific, Reinach, Switzerland) were coated overnight at 4° C. with 25 μl of anti-IL18 monoclonal antibody (MBL, cat #D043-3, Clone 25-2G) at 2 μg/ml in PBS. Plates were then washed four times with 100 μl of PBS-0.02% Tween20. Plates surfaces were blocked with 25 μl of PBS-0.02% Tween20-1% BSA at 37° C. during 1 h. Plates were then washed four times with 100 μl of PBS-0.02% Tween20. Twenty-five microliters of IL-18 variants (or of mouse plasma) were added in […] serial dilutions starting at 50 nM down to 0.02 nM into PBS-0.02% Tween20-0.1% BSA and incubated at 37° C. during 2h. […] Plates were incubated during 2h at 37° C. and were then washed four times with 100 μl of PBS-0.02% Tween20. […] ELISA signal was then measured at 450 nm on an EnSpire plate reader from Perkin Elmer (Schwerzenbach, Switzerland)
A general note: In an ELISA, binding on a coated surface is turned into a signal by an enzyme label.

In the next assay the target is T1, Fc fused human IL-18Rα (human, UniProt Q13478 19-329, limits assumed).
T1 construct: also called IL-18Rα monomer; IL-18 receptor alpha; not shown: Fc part
T1 sequence (looked up): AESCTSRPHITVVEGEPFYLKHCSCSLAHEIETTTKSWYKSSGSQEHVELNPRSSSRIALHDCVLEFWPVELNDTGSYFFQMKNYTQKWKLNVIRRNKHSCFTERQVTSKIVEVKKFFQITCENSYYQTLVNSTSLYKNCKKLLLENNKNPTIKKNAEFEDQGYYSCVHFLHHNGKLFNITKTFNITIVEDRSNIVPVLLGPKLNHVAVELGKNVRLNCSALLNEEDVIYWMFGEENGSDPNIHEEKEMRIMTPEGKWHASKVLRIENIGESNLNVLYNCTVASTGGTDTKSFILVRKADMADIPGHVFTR
Description: SPR, Fc-IL-18Rα captured, 1:1 model. Here is the method:
(§2) The interaction of the wild type and of modified IL-18 polypeptides with human IL-18 receptor subunits were measured with Surface Plasmon Resonance (SPR) technology. Anti-human IgG antibodies were bound by amine coupling onto a CM5 chip to capture 6 μg/mL of Fc fused human IL-18Rα, 6 μg/mL of Fc fused human IL-18Rβ, or 2 μg/mL of Fc fused human IL-18BP isoform a (IL-18BPa) for 30 min before capture. In other settings, 6 μg/mL of alpha and beta IL-18 receptors were mixed and pre-incubated for 30 min before capture of the alpha/beta heterodimer IL-18 receptor.
(§3) The kinetic binding of the IL-18 analytes were measured with a Biacore 8K instrument in two-fold serial dilutions starting at 1 μM down to 0.98 nM. Regeneration of the surface back to amine coupled anti IgG antibody was done after every concentration of analyte. To measure the protein association to the receptors, the samples were injected with a flow rate of 50 μL/min for 60 s, followed by 300 s buffer only to detect the dissociation. The used running buffer was 1×PBS with 0.05% Tween20. The relative response units (RU, Y-axis) are plotted against time (s, X-axis) and analyzed in a kinetic 1:1 binding model for the monomer receptor binding and for the binding to the IL-18BP. A kinetic heterogenous ligand fit model was applied for the alpha/beta heterodimer binding.
Modified IL-18 polypeptides having sequence modifications E06K, K53A, S55A, and T63A maintained binding affinity to IL-18Rα.
On the technique in general: SPR reads the build-up and loss of mass on a sensor chip optically.

Assay [3] deals with anti-IL18 monoclonal antibody (MBL, cat #D043-3, Clone 25-2G). In words: sandwich ELISA, capture clone 25-2G, detection biotinylated clone 159-12B; in the presence of IL-18BP (form and concentration not given); the signal depends on both antibodies. Here is the method:
as §1

The target of assay [4] is T2, IL-18Rα/β heterodimer (Fc fused human IL-18Rα mixed and pre-incubated with Fc fused human IL-18Rβ) (human, UniProt Q13478 19-329; O95256 20-356, limits assumed).
T2 construct: 6 µg/mL of each receptor mixed and pre-incubated 30 min before capture on anti-human IgG; also called alpha/beta heterodimer IL-18 receptor; not shown: Fc part
T2 sequence (looked up) 1: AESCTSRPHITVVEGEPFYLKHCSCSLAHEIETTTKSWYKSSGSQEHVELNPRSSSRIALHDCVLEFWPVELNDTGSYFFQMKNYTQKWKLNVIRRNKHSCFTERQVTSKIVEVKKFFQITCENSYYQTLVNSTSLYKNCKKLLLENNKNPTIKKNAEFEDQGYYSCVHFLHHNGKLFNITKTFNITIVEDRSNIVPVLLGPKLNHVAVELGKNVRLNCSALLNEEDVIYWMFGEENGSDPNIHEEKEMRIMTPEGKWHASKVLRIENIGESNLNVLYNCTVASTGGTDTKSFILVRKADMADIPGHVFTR
T2 sequence (looked up) 2: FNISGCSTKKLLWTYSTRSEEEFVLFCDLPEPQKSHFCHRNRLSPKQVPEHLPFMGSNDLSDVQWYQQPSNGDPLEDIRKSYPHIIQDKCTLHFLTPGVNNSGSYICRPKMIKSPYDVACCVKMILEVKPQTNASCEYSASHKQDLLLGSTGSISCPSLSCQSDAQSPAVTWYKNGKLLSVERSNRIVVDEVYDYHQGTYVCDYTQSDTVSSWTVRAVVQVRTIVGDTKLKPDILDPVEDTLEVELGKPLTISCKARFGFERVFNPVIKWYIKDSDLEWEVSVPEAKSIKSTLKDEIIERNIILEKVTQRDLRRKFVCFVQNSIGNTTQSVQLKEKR
Description: SPR, Fc-IL-18Rα/Fc-IL-18Rβ mix captured, heterogeneous ligand model. The procedure: as §2, §3
Modified IL-18 polypeptides bearing sequence modifications E06K, K53A, S55A, and T63A maintained binding affinity to IL-18Rα/β heterodimer.

Assay [5] has as its target T3, Fc fused human IL-18BP isoform a (IL-18BPa) (human, UniProt O95998 31-194).
T3 construct: also called IL-18BP monomer; not shown: Fc part
T3 sequence (looked up): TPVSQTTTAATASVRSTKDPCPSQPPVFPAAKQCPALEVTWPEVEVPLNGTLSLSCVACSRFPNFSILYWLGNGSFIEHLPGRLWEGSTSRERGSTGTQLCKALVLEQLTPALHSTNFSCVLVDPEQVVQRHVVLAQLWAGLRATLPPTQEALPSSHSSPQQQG
Description: SPR, Fc-IL-18BPa captured, 1:1 model. Here is the method:
as §2, §3
Modified IL-18 polypeptides bearing sequence modifications K53A, S55A, E06K, C38S, C68S, C76S, C127S, and/or K70C maintained binding affinity to IL-18BP.

B1: Modified IL-18 polypeptide of SEQ ID NO: 2 (E06K, K53A, S55A) (ligand)
chain: YFGKLKSKLSVIRNLNDQVLFIDQGNRPLFEDMTDSDCRDNAPRTIFIISMYADAQPRGMAVTISVKCEKISTLSCENKIISFKEMNPPDNIKDTKSDIIFFQRSVPGHDNKMQFESSSYEGYFLACEKERDLFKLILKKEDELGDRSIMFTVQNED
On to B1, for which, in assay [1], the “EC50 (pM), HEK-Blue IL18R reporter assay” value amounted to 272 pM and the “Potency loss Mutant/NWT, HEK-Blue IL18R reporter assay” value (“Potency loss Mutant/NWT” below) is 81.8 fold. Also, in assay [2], the “EC50 (read off the curve)” value is about 0.2 nM. Moreover, in the assay with Fc fused human IL-18Rα, the affinity, expressed as Kd, was 2000 nM; the koff stood at 0.0627 s⁻¹; the on-rate (kon) was found to be 31800 M⁻¹ s⁻¹. Also, the “EC50 (read off the curve)” value in assay [3] was about 0.2 nM. In assay [4], this molecule registered a dissociation constant (Kd) of 1930 nM, a koff of 0.0734 s⁻¹ and a kon of 39200 M⁻¹ s⁻¹.

B2: Modified IL-18 polypeptide of SEQ ID NO: 71 (E6K, C38S, K53A) (ligand)
chain: YFGKLKSKLSVIRNLNDQVLFIDQGNRPLFEDMTDSDSRDNAPRTIFIISMYADSQPRGMAVTISVKCEKISTLSCENKIISFKEMNPPDNIKDTKSDIIFFQRSVPGHDNKMQFESSSYEGYFLACEKERDLFKLILKKEDELGDRSIMFTVQNED
Consider B2, for which, in assay [1], the “EC50 (pM), HEK-Blue IL18R reporter assay” value came to 0.86 pM and the “Potency loss Mutant/NWT” value came out at 0.26 fold. Further, in the assay with Fc fused human IL-18Rα, the Kd turned out to be 72.4 nM, the koff came out at 0.0151 s⁻¹ and the kon amounted to 208000 M⁻¹ s⁻¹. In assay [4], binding was characterised by a dissociation constant (Kd) of 2.92 nM, the koff is 0.0008 s⁻¹ and the kon was found to be 279000 M⁻¹ s⁻¹. In assay [5], binding was put at a Kd of 2.72 nM, the koff worked out at 0.0031 s⁻¹ and the kon worked out at 1.14e+06 M⁻¹ s⁻¹.

B3: Modified IL-18 polypeptide of SEQ ID NO: 71 with a 30 kDa PEG attached at residue C68 (E6K, C38S, K53A, C68-30kDPEG) (ligand)
chain: YFGKLKSKLSVIRNLNDQVLFIDQGNRPLFEDMTDSDSRDNAPRTIFIISMYADSQPRGMAVTISVKCEKISTLSCENKIISFKEMNPPDNIKDTKSDIIFFQRSVPGHDNKMQFESSSYEGYFLACEKERDLFKLILKKEDELGDRSIMFTVQNED
modifications: 30 kDa PEG on Cys 68 (30 kDa DBCO-polyethylene glycol clicked to a bromoacetamido-PEG5-azide linker on the cysteine)
notes: also called 71 + PEG
As to B3, in assay [1], the “EC50 (pM), HEK-Blue IL18R reporter assay” value came out at 1.85 pM and the “Potency loss Mutant/NWT” value worked out at 0.56 fold. Besides, in the assay with Fc fused human IL-18Rα, the affinity, expressed as Kd, was 682 nM; the koff came to 0.0217 s⁻¹; the kon worked out at 31800 M⁻¹ s⁻¹. In assay [4], this molecule gave a Kd of 23.9 nM, a koff of 0.0008 s⁻¹ and a kon of 32200 M⁻¹ s⁻¹. Moreover, in assay [5], the affinity, expressed as Kd, was 24.5 nM; the koff came out at 0.0039 s⁻¹; the kon was 158000 M⁻¹ s⁻¹.

(Values after patent US20220056091A1 (BRIGHT PEAK THERAPEUTICS, published 2022).)
